In publication PMC8755798 (Nature Communications, 2022):

Target: the molecule itself
Test: cryo-EM structure

B1: mycobacterial proteasome ATPase (Mpa), Mycobacterium tuberculosis, wild type (enzyme)
chain: MGESERSEAFGIPRDSPLSSGDAAELEQLRREAAVLREQLENAVGSHAPTRSARDIHQLEARIDSLAARNSKLMETLKEARQQLLALREEVDRLGQPPSGYGVLLATHDDDTVDVFTSGRKMRLTCSPNIDAASLKKGQTVRLNEALTVVEAGTFEAVGEISTLREILADGHRALVVGHADEERVVWLADPLIAEDLPDGLPEALNDDTRPRKLRPGDSLLVDTKAGYAFERIPKAEVEDLVLEEVPDVSYADIGGLSRQIEQIRDAVELPFLHKELYREYSLRPPKGVLLYGPPGCGKTLIAKAVANSLAKKMAEVRGDDAHEAKSYFLNIKGPELLNKFVGETERHIRLIFQRAREKASEGTPVIVFFDEMDSIFRTRGTGVSSDVETTVVPQLLSEIDGVEGLENVIVIGASNREDMIDPAILRPGRLDVKIKIERPDAEAAQDIYSKYLTEFLPVHADDLAEFDGDRSACIKAMIEKVVDRMYAEIDDNRFLEVTYANGDKEVMYFKDFNSGAMIQNVVDRAKKNAIKSVLETGQPGLRIQHLLDSIVDEFAENEDLPNTTNPDDWARISGKKGERIVYIRTLVTGKSSSASRAIDTESNLGQYL
- stoichiometry N: 6
